Experiment in all cases: cell-based or functional assay
One assay deals with T1, GIP receptor (UniProt P48546).
T1 sequence (looked up): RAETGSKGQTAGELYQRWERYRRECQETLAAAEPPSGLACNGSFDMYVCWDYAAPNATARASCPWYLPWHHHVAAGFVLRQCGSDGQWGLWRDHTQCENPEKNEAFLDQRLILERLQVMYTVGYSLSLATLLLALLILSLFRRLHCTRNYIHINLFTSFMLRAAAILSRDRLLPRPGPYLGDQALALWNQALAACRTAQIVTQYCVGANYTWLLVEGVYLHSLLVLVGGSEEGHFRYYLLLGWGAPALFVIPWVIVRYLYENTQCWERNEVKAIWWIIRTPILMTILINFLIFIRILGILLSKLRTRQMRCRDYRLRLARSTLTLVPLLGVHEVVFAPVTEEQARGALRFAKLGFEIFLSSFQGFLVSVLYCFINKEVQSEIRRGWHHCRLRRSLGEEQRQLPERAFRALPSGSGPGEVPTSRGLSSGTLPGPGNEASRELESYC

The target of the next assay is GLP-1 receptor (UniProt P43220).
The target of the next assay is glucagon receptor (UniProt P47871).
glucagon receptor, sequence (P47871 26-477 limits assumed): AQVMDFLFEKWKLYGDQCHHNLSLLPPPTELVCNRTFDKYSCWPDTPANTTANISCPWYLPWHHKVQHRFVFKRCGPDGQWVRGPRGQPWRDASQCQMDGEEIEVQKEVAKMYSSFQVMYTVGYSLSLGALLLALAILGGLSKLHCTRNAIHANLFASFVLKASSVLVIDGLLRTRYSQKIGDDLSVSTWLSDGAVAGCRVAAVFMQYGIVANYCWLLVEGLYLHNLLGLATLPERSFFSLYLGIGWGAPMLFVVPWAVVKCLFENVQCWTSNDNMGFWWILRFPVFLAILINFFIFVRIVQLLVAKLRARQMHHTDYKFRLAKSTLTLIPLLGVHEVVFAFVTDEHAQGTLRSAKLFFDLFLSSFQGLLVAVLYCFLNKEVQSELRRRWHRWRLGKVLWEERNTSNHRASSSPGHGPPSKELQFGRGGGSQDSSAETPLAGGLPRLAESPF

GLP-1 receptor, sequence (P43220 24-463 limits assumed): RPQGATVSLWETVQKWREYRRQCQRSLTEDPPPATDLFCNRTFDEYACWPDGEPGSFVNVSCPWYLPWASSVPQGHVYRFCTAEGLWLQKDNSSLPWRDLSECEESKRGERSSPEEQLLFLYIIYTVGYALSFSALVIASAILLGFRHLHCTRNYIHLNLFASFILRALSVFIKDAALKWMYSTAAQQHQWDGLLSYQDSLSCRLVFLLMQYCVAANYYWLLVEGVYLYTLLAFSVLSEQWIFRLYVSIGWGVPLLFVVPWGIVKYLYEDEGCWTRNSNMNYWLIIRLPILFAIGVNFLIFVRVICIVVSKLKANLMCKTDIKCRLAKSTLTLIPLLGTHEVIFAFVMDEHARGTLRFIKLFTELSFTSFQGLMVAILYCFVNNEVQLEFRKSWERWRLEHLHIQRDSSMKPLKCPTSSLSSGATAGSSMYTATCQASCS

“HAibEGT-PLA6, (E16K20), C24, cex, K40(rErEC16) G(1-40)/A1, Aib2, E3, K40 GIP(1-40)” displayed a GIP (EC50) with GIP receptor of 0.379 nM. Besides, the GLP-1 (EC50) with GLP-1 receptor was 0.363 nM.
In the case of “HAibEGT-PLA6, K10(rErEC16), (E16K20) G(1-29) (peptide)”, the GLP-1 (EC50) with GLP-1 receptor stood at 0.19 nM. Moreover, in the assay with glucagon receptor, the Glucagon IC50 stood at 14.3 nM.
In the assay with GLP-1 receptor, “HAibEGT-PLA6, (E16K20) G(1-29) (peptide)” returned a GLP-1 (EC50) of 3.6 nM. In addition, in the assay with glucagon receptor, the Glucagon IC50 is 12 nM.
A1, Aib2, E3 GIP(1-40) (peptide) had a GIP (EC50) with GIP receptor of 3.89 nM.
In turn, “HAibEGT-PLA6, K10(rErEC16), (E16K20), C24 G(1-29)/A1, Aib2, E3, K40 GIP(1-40)” showed a GIP (EC50) in the assay with GIP receptor of 0.347 nM. In the assay with GLP-1 receptor, this substance showed a GLP-1 (EC50) of 0.813 nM.
Substance “HAibEGT-PLA6, (E16K20), cex, K40(rErEC16) G(1-40) (peptide)” displayed a GLP-1 (EC50) with GLP-1 receptor of 0.76 nM. This substance also came in with a Glucagon IC50 with glucagon receptor of 150 nM.
“PLA6, (E16K20), C24 G(6-29)/A1, Aib2, E3, K40 GIP(1-40)” had a GIP (EC50) with GIP receptor of 1.29 nM. Also, the GLP-1 (EC50) with GLP-1 receptor is 367 nM. In the assay with glucagon receptor, this substance returned a Glucagon IC50 of 40.1 nM.
“HAibEGT-PLA6, (E16K20), C24 G(1-29)/A1, Aib2, E3, K40 GIP(1-40)” displayed a GIP (EC50) with GIP receptor of 1.58 nM. The GLP-1 (EC50) with GLP-1 receptor worked out at 11.7 nM.
“[d-Cys5(20kDaPEG), E9]Glucagon(aa5-29)-NH2 (peptide)” displayed an IC50(nM) (cAMP, inhibit 0.2 mM Glucagon) in the assay with glucagon receptor of 14800 nM.

Source of the values: patent US20120322725A1.
